This passage reports MT binding time of diffusive beads results from PMC4250405.

The assay concerns the target taxol-stabilized microtubules (UniProt Q6B856). In words: optical trap bead assay.

In the case of “p150^Glued fragment p150 1-555 (from UniProt P28023 1-555) (domain or fragment)”, the MT binding time of diffusive beads worked out at 54.3 s.
